From patent publication US10508139B2, “Compound, use, anti-tumor pharmaceutical composition, gene construct for polypeptide expression, process for the production, process for the evaluation of tumor cells, method of sensitization of tumor cells to chemotherapeutic” (União Brasileira de Educaçâo e Assistência, mantendedora da …, priority 2012, dated 2019)

Tests used:
B16F10 cells [1] = assay: Tumor growth of B16F10 cells transiently transfected with murine HspBP1 or HspBP1 (1-136); assay type: in vivo, mice; conditions: subcutaneous, monitored for 20 days
Method: Working with the possibility that human HspBP1 protein is recognized by the mouse immune system and that this is the reason for the tumor growth reduction, we decided to repeat the experiments using murine HspBP1. The B16F10 cells were transiently transfected with plasmid containing the sequence encoding the murine HspBP1 or […] as a control, and these cells were injected subcutaneously in the mouse thigh. Tumor growth was monitored for 20 days by measuring the volume of the thigh using a digital caliper.
B16F10 cells (5×10^5) were transiently transfected with pcDNA4/TO plasmid alone or containing the sequence encoding HspBP1 and HspBP1 (1-136) protein and, after 24 h, were injected subcutaneously into mice. A)—Quantification of tumor growth inhibition by HspBP1 after 20 days of tumor growth (Mann-Whitney test, p<0.05). B)—Tumor-bearing mice were photographed after 20 days of tumor growth. C)—Western blot analysis showing in vitro HspBP1 and truncated HspBP1 (1-136) expression on transfected cells.

B16F10 cells [2] = assay: Tetracycline-induced human HspBP1 overexpression in B16F10 tumors in mice; assay type: in vivo
Text: As part of the experimental strategy, a gene construct was designed and implemented for the Hsp70 binder expression, said construct being particularly useful for gene therapy for the treatment of mammalian tumors. Said gene construct comprises: • a sequence encoding a Hsp70 binding polypeptide; • a promoter sequence operatively linked to said encoding sequence; • said promoter and coding sequences being present on a vector or functional plasmid for expression of said polypeptide in prokaryotic or eukaryotic cells. In this context, a system was developed in which HspBP1 expression was regulated by the presence of tetracycline. B16F10 cells were stably transfected with pcDNA6/TR plasmid, the transfected clones were selected using antibiotic and then the cells were transfected with a plasmid containing the sequence encoding human HspBP1, or empty vector as a control. The HspBP1 increased expression was verified by adding tetracycline to the culture medium. […]
The B16F10 cells were stably transfected with pcDNA6/TR and pcDNA4/TO plasmids with or without the human HspBP1 sequence. […] Quantification of tumor growth inhibition by HspBP1 (Mann-Whitney test, /d/p<0.05). Tumor volume (V) was calculated using V=d2×D×0.5, where d=smaller diameter and D=larger diameter.

activated caspase 3 = assay: Ex vivo activated caspase 3 Western blot of treated tumors; assay type: in vivo, mice; conditions: tumor removed 24 hours after treatment, OVA control
Method: We performed ex vivo tests to verify that HspBP1 treatment could activate caspase 3 in melanoma. 8×10^5 cells/animals were injected and after 3 days they were treated with HspBP1 FL, HspBP1 (1-136) or OVA. After 24 hours, the tumor was removed and analyzed for activated caspase 3 by Western blot (FIG. 5).
The 17 kDa band represents the marking of activated caspase 3.

[3] = target: T1, Hsp70 on the surface of the cells (Mus musculus, UniProt Q61696); assay: Binding to B16F10 cells analyzed by flow cytometry; design: species or system murine; conditions: B16F10 cells labeled 2 hours on ice
T1 construct: endogenous in cells; host or cells: B16F10 murine melanoma cells
T1 sequence (Q61696 whole entry): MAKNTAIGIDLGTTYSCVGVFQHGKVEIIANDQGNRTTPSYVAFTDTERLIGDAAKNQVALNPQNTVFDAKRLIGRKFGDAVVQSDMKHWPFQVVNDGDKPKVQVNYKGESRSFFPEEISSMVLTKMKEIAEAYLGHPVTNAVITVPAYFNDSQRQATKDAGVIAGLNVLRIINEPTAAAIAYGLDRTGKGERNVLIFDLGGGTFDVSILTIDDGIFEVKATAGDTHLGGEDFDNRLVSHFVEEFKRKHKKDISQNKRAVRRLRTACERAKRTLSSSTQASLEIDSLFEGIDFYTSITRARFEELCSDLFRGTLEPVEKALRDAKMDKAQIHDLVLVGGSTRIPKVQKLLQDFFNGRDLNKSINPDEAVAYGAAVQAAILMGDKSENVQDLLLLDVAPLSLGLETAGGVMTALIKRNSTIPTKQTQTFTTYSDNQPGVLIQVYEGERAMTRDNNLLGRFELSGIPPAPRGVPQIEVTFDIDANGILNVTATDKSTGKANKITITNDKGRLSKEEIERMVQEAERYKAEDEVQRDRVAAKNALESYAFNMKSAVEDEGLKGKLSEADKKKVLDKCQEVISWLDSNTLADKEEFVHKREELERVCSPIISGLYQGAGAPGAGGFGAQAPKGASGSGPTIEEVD
Text: Studies have shown that Hsp70 and HspBP1 can be secreted by tumor cells (Evdonin et al., 2009) and it is well established that Hsp70 is present in human serum (Pockley et al., 1998). Our laboratory has shown that breast cancer patients had twice the HspBP1 level in their serum compared to tumor-free individuals. Furthermore, breast tumors contained HspBP1 (and Hsp70) levels that were 4 times higher than the normal adjacent tissue (Souza et al., 2009).
Fc receptors were blocked using […], then the cells were labeled for 2 hours on ice with HspBP1 (FL) or HspBP1 (1-136). Cells were acquired on FACS Canto II cytometer (BD bioscience), and the data were analyzed using the FlowJo software (TreeStar).

B16F10 cells [4] = assay: Survival of transfected B16F10 cells after heat shock; assay type: cell-based, murine; conditions: overexpression in B16F10 cells, heat shock 42° C. for 1 h
Method: When Hsp70 is silenced in B16F10 cells using siRNA and when we submit the cells to heat shock, there is a reduction in the number of viable cells in vitro (FIG. 3).
B—Western blot analysis of Hsp70 and actin expression in B16F10 cells, after silencing Hsp70 with siRNA. Cells were treated with control siRNA (lane 1) or Hsp70 siRNA (lane 2) and subsequently heat shocked at 42° C. for 2 hours, followed by a recovery of 37° C. for 4 h. C—Survival of B16F10 cells transiently transfected with pcDNA4/TO plasmid containing the murine HspBP1 sequence or pcDNA4/TO plasmid having murine HspBP1 (1-136) sequence; with or without heat shock at 42° C. for 1 h.

B16F10 cells [5] = assay: Sensitization of B16F10 cells to hydrogen peroxide-induced death (MTT, annexin/propidium iodide); assay type: cell-based, murine; conditions: HspBP1 for 2 h, then hydrogen peroxide; MTT after 24 h or annexin/propidium iodide after 12 h
Method: Since Hsp70 protects against death induced by oxidative stress—such as, for example, that induced in the treatment with hydrogen peroxide, we hypothesized that HspBP1 will sensitize tumors to death by oxidative stress, thereby enabling a tumor cell sensitization method to chemotherapeutic agents. HspBP1 was added at different concentrations with B16F10 cells cultured for 2h and then hydrogen peroxide was added. After 24 h and 12 h viability was assessed using MTT or by annexin and propidium iodide labeling to assess apoptotic cells. […] Viability was assessed using MTT after 24 hours (A) or by annexin and propidium iodide labeling after 12 h (B).

tumor = assay: Intravenous injections in tumor bearing mice; assay type: in vivo; conditions: circulating levels increased through intravenous injections
Text: The invention therefore additionally provides a new in vivo experimental model for the development of new anti-tumor agents.

GL, glioma cell line = assay: Apoptosis in GL glioma cell line (Annexin V/iodide flow cytometry); assay type: cell-based; conditions: 10 or 20 ug for 24 hours, albumin control
Method: In vitro assays were performed to verify whether HspBP1 could induce cell death in GL, glioma cell line. 5×10^5 cells were seeded per well in a 24 well plate. Then, cells were incubated with 10 or 20 ug HspBP1 or albumin for 24 hours in DMEM containing 1% fetal bovine serum. After 24 hours, the samples were analyzed by flow cytometry using the Annexin V/iodide kit (BD).

Hsp70 ATPase activity = Hsp70 ATPase activity (Homo sapiens, UniProt P0DMV8); conditions: according to Raynes et al. (2003); cited from earlier work
Hsp70 ATPase activity, sequence (P0DMV8 whole entry): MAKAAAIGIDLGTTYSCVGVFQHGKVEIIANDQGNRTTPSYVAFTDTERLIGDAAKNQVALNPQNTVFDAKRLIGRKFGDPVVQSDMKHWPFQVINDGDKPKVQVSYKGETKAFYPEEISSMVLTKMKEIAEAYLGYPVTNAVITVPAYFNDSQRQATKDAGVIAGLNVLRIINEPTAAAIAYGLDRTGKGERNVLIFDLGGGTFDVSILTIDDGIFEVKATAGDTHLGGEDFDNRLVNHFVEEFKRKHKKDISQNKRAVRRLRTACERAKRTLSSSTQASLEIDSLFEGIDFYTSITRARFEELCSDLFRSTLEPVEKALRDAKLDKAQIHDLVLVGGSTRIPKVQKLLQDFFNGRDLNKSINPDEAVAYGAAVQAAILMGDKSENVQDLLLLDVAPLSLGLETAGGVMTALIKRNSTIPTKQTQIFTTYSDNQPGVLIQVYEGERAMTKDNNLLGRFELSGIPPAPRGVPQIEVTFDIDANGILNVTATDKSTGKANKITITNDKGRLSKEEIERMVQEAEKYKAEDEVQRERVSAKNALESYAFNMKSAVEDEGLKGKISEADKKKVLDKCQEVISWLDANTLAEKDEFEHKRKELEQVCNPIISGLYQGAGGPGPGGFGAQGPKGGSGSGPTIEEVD

draining lymph nodes = assay: Draining lymph node analysis of tumors over-expressing HspBP1 (flow cytometry); assay type: in vivo, mice; conditions: 25 days of tumor growth
Method: Furthermore, activation of dendritic cells and the number of CD4 and CD8 T cells in draining lymph nodes of tumor-bearing mice transiently over-expressing HspBP1 was evaluated. […] A—Number of CD4+ or CD8+ T cells in draining lymph nodes. B—Number of CD11c+CD86+MHCII+ cells. C—Dot plot graph showing the frequency of CD11c+, CD86 +MHC-II+ dendritic cells.

B16F10 cells [6] = assay: Chemo-sensitization of B16F10 cells to cisplatin (MTT); assay type: cell-based, murine; conditions: HspBP1 for 2 h, then cisplatin 160 ug/ml, 14 h
Method: (§1) It was also assessed whether HspBP1 may enhance the effect of chemotherapeutic agents already used in clinical practice. The B16F10 cells were plated at a concentration of 4×10^3 cells per well in a 96 well plate in 200 ul 10% DMEM medium. After 24 h, HspBP1 was added at different concentrations in AIM-V medium, and cells were incubated for 2 h; then cisplatin was added at a concentration of 160 ug/ml. After 14 h cell viability was assessed using MTT.
as §1, with “The” for “It was also assessed whether HspBP1 may enhance the effect of chemotherapeutic agents already used in clinical practice. The”, “14 h,” for “14 h”

B16F10 cells [7] = assay: Growth of HspBP1-overexpressing B16F10 tumors in WT and RAG-/- mice; assay type: in vivo; conditions: for tumor size vs vector control: 25 days of tumor growth
Method: One possibility is that the host immune system plays a role in in vivo tumor growth inhibition mediated by HspBP1. A comparison between wild WT mice (C57BL6/c) and immunodeficient mice (RAG−/−) was used to further explore the involvement of the immune system in tumor regression mediated by HspBP1 overexpression in B16F10 cells (FIG. 10).
Tumor volume (mm3) was measured after 25 days of tumor growth (Mann-Whitney test, p <0.05).

B16F10 cells [8] = assay: Intratumoral injection of recombinant protein in melanoma-bearing mice; assay type: in vivo; conditions: 40 ug intratumorally on days 3 and 6, monitored for 16 days, BSA control
Method: The recombinant form of the non-natural 1-136 peptide was produced. Then melanoma-bearing mice were treated with whole protein (FL) or only with said peptide. […] 3 and 6 days later, 40 ug HspBP1, BSA or truncated HspBP1 were intratumorally injected in 100 uL PBS. Tumor growth was monitored for 16 days. Tumor sizes were measured using a caliper. Tumor volume (V) (mm3) was calculated using V=d2×D×0.5, wherein d=smaller diameter and D=larger diameter.

B16F10 cells [9] = assay: Single HspBP1 treatment of B16F10 cells in culture; assay type: cell-based, murine; conditions: no added stressor

## murine HspBP1: murine HspBP1 expressed in B16F10 cells from pcDNA4/TO plasmid; 94% identical to human form
B16F10 cells [1]
  tumor growth: inhibits tumor growth

B1: human HspBP1: human HspBP1 expressed in B16F10 cells from a tetracycline-regulated plasmid (protein, UniProt Q9NZL4 1-359, looked up)
Hsp70-binding protein 1: MSDEGSRGSRLPLALPPASQGCSSGGGGGGSSAGGSGNSRPPRNLQGLLQMAITAGSEEPDPPPEPMSEERRQWLQEAMSAAFRGQREEVEQMKSCLRVLSQPMPPTAGEAEQAADQQEREGALELLADLCENMDNAADFCQLSGMHLLVGRYLEAGAAGLRWRAAQLIGTCSQNVAAIQEQVLGLGALRKLLRLLDRDACDTVRVKALFAISCLVREQEAGLLQFLRLDGFSVLMRAMQQQVQKLKVKSAFLLQNLLVGHPEHKGTLCSMGMVQQLVALVRTEHSPFHEHVLGALCSLVTDFPQGVRECREPELGLEELLRHRCQLLQQHEEYQEELEFCEKLLQTCFSSPADDSMDR
B16F10 cells [2]; B16F10 stably transfected, injected subcutaneously into thigh of mice, tetracycline in drinking water, control tumors 46.9 mm^3
  average tumor volume: 2.07 mm^3
B16F10 cells [2]; induced human HspBP1 overexpression vs mice without tetracycline
  tumor growth: clearly reduced

B2: truncated HspBP1: non-natural peptide corresponding to amino acids 1-136 of HspBP1 (protein)
chain: MADKGSGGSRLPLALPPASQGCSSGGSGSSAGGSGNPRPPRNLQGLLQMAITAGSQEPDPPPEPMSEERRQWLQEAMSAAFRGQREEVEQMKNCLRVLSQATPAMAGEAELATDQQEREGALELLADLCENMDNAA
B16F10 cells [1]
  tumor growth: also inhibits tumor growth
Activated caspase 3
  apoptosis in vivo (activated caspase 3): inhibits tumor growth by inducing apoptosis in vivo
[3]
  binding to the extracellular surface of tumor cells: can bind to the extracellular surface of tumor cells
B16F10 cells [4]
  cell survival after heat shock: no changes occur in vitro

B3: HspBP1: Hsp70 binding co-chaperone protein, SEQ ID No: 1; species of the protein not always stated (protein, listed as Mus musculus)
chain: B2 chain
B16F10 cells [5]
  death induced by oxidative stress: enhances death induced by oxidative stress
tumor
  tumor growth: tumor growth was reduced
GL, glioma cell line
  frequency of apoptotic cells: increase in the frequency of apoptotic cells
Hsp70 ATPase activity
  HspBP1/Hsp70 molar ratio resulting in 50% inhibition of Hsp70 ATPase activity: 4.0
Draining lymph nodes; CD4 and CD8 T cells
  T cell frequency in the draining lymph nodes: no difference in T cell frequency
Draining lymph nodes; CD11c+CD86+MHCII+ cells
  activation of dendritic cells in the lymph node: trend in the activation of dendritic cells
[3]
  binding to the extracellular surface of tumor cells: can bind to the extracellular surface of tumor cells
B16F10 cells [6]
  effect on cisplatin-induced death (cell viability, MTT): enhances the effect of cisplatin death
B16F10 cells [7]; RAG -/- mice
  tumor size vs vector control: tendency to be smaller than tumors transfected with vector alone, although the difference was not significant
B16F10 cells [7]; WT mice (C57BL6/c)
  tumor size vs vector control: significantly smaller than tumors transfected only with the vector as a control
B16F10 cells [7]; tumors expressing HspBP1
  tumor size, WT vs RAG -/- mice: significantly smaller in WT than in RAG −/− mice
B16F10 cells [8]
  tumor growth: Reduces Tumor Growth
B16F10 cells [4]
  cell survival after heat shock: no changes occur in vitro
B16F10 cells [9]
  anti-tumor effect in culture: lack of an anti-tumor effect
